Laboratory results from patent publication US20220332804A1 (CSL INNOVATION, published 2022).
Changes are numbered by the printed parent chain.

Experiments:
Assay in all cases: SPR; KD relative to WT C2;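 further: biacore SPR at 37 °C, anti-C2 mAbs captured on an anti-human IgG chip, alanine or serine C2 surface mutants tested, KD from 1:1 fit compared with wild-type C2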
[1] = target: T1, human C2 Q447A (human, UniProt P06681 21-752)
T1 sequence: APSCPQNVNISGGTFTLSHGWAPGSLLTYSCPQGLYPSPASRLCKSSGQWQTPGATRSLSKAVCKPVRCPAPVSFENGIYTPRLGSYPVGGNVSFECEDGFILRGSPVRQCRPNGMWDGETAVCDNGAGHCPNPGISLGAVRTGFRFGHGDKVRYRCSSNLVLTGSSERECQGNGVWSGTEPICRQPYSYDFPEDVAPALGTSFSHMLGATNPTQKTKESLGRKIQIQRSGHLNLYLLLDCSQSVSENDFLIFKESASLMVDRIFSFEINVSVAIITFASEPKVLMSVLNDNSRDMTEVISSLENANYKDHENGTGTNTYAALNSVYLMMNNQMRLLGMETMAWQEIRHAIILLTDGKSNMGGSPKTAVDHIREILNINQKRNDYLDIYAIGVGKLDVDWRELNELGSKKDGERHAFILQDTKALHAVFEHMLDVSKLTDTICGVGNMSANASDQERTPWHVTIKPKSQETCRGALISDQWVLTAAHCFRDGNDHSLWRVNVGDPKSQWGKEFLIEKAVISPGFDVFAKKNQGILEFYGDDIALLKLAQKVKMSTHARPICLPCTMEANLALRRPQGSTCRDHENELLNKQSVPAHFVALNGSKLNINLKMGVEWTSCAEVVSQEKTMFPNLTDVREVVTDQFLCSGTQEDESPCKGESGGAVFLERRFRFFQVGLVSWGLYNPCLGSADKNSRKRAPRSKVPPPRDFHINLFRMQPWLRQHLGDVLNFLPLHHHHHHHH

[2] = target: T2, human C2 K415A (human, UniProt P06681 21-752)
T2 sequence: T1 sequence with K395A, A427Q

[3] = target: T3, human C2 N268A (human, UniProt P06681 21-752)
T3 sequence: T1 sequence with N248A, A427Q

[4] = target: T4, human C2 A444S (human, UniProt P06681 21-752)
T4 sequence: T1 sequence with A424S, A427Q

Fold diff [1]: 4 fold
Fold diff [2]: 1 fold
Fold diff [3]: 2 fold
Fold diff [4]: 1 fold
B1: RF16-214 (antibody, V domains shown)
VH: EVQLLESGGGLVQPGGSLRLSCAASGFTFSWYQMMWVRQAPGKGLEWVSRIYPSGGGTAYADSVKGRFTISRDNSKNTLYLQMNSLRAEDTAVYYCARDAGYGDNWGQGTLVTVSS
VL: QSALTQPPSVSVSPGQTASITCSGDKLGEKYASWYQQKAGQSPVMVIYQDRKRPSGIPERFSGSNSGNTATLTISGTQAMDEADYYCQAWDTRAVVFGGGTKLTVLG
